Assay results published in US20120027739A1.

Biological target: … HLA-A*01 complex (soluble, biotinylated)
Test: BIAcore SPR; pHLA immobilised via biotin, soluble TCR injected

Kd: 6.55 µM
T½: 6.1 s
koff: 0.114 s⁻¹
B1: soluble disulfide-linked MAGE-A3 TCR: alpha chain with variable domain SEQ ID No: 8, reference TCR beta chain (TCR, V domains shown)
V domain 1: KQEVTQIPAALSVPEGENLVLNCSFTDSAIYNLQWFRQDPGKGLTSLLLVRPYQREQTSGRLNASLDKSSGRSTLYIAASQPGDSATYLCAVRPGGAGSYQLTFGKGTKLSVIP
V domain 2: KAGVTQTPRYLIKTRGQQVTLSCSPISGHRSVSWYQQTPGQGLQFLFEYFSETQRNKGNFPGRFSGRQFSNSRSEMNVSTLELGDSALYLCASSPNMADEQYFGPGTRLTVTE
